Experimental data published in paper PMC3062965 (Apoptosis : an international journal on programmed cell …, 2010).
“And” between values parts separate entries of the source, which are not always exact repeats. Equal entries are not always repeated.

Biological target: full-length RAIDD (1-199) (human, UniProt P78560 1-199)
Assay: SEC-MALS

Sequence of full-length RAIDD (1-199) (P78560 whole entry): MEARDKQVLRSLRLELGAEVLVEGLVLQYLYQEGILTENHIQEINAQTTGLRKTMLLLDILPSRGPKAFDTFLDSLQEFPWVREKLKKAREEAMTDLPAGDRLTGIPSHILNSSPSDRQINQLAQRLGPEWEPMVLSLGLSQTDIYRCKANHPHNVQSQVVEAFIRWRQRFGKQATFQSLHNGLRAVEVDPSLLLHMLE

B1: PIDD DD (777-883) (domain or fragment, human, UniProt Q9HB75 777-883, looked up)
chain: LNLGDAETGFLTQSNLLSVAGRLGLDWPAVALHLGVSYREVQRIRHEFRDDLDEQIRHMLFSWAERQAGQPGAVGLLVQALEQSDRQDVAEEVRAVLELGRRKYQDS
stoichiometry N: 7 RAIDD per complex and 5 PIDD DD per complex
